Data from the supplement of paper PMC9170038.

System: MS2 coat protein
Experiment: apparent KD of MS2 coat protein; designed switch direction (-1 OFF switch, 1 ON switch): -1; higher = weaker reporter binding
Procedure, shortened: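 Stalled E. coli RNA polymerase transcribed designed RNA switches on Illumina chips, which were then titrated with SNAP-549-labelled MS2 coat protein, doubling from 0.7 or 1.5 nM to 3 µM. Steps lasted from 0.8–1.5 h at the lowest concentration to 10–20 min at the highest. The apparent KD is each design's median over clusters of curve-fitted normalised fluorescence.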

[1] = input ligand: microRNA oligo, concentration not stated
[2] = Eterna round: R95, input ligand: microRNA oligo, concentration not stated
[3] = Eterna round: R95, input ligand: FMN 200 uM
[4] = Eterna round: R95, input ligand: none

Row | Sequence | apparent KD of MS2 coat protein (input ligand: FMN 200 uM) [µM] | apparent KD of MS2 coat protein (input ligand: none) [µM] | also measured
1 | GGUACUCAAAGAGUACCAAUACGAACAUGAGGAUCACCCAUGUAGGAUAUGCUACUCAAAGAGUAGCAGAAGGAUAUGAACCCU [Far Half Aptamer v8] (Eterna round: R96, puzzle: Exclusion NG 3) | 0.0331 | 0.0263 | apparent KD of MS2 coat protein [1]: 0.0168 µM
2 | CGCCCUGACGAAGGAUAUUAAGCUCAUACAUGAGGAUCACCCAUGUCCAUAGUAGUGUAUGCACCUGAGAAGGUCGUCAGCGCU [Eternabot solution 50] (Eterna round: R96, puzzle: Exclusion NG 2) | 0.213 | 0.257 | apparent KD of MS2 coat protein [1]: 0.24 µM
3 | AUUUUGUCAGGAUAUUGUUAGUUUAGUUGUUUGUAUUAGUUCGAGAAGGGACAUGAGGAUCACCCAUGUGAAAA [Ex4 #71] (Eterna round: R97, puzzle: Exclusion 4) | 0.0389 | 0.0372 | 
4 | GAAUAGGCAGGAUAUACAUGAGGAUCACCCAUGUGCUUGCGAUAGGCACGUGAACAACGUAGAAGGGCCUUAAC [ChP 13.04.2015 #12] (puzzle: Exclusion 3) |  |  | apparent KD of MS2 coat protein [2]: 0.0283 µM
5 | GAUUAUGCGAGCUUUAGGGACAUGAGGAUCACCCAUGUUCGUCUUAUUAAUCUAGGUGCACUGACAUACCUAAAUCU [JMF 87] (puzzle: Sensor v3, turn-off variant 1) |  |  | apparent KD of MS2 coat protein [3]: 0.0207 µM; apparent KD of MS2 coat protein [2]: 0.03 µM; apparent KD of MS2 coat protein [4]: 0.0217 µM
6 | AAAUAGAAAGGAUAUACAGGCAUCCUUACCAGAGCGAGCUCACAUGAGGAUCACCCAUGUAGAAGGUUCAUAGC [EX2 C.17] (Eterna round: R97, puzzle: Exclusion 2) | 0.0349 | 0.0318 | 
7 | AUGGGUCCUCUCGGAGCUACAUGAGGAUCACCCAUGUGUAUUGAGGAUAUCCACUGCUCAGGACGGGAGAAGGCAGUGUACUGU [Ex NG3 #87] (Eterna round: R96, puzzle: Exclusion NG 3) | 0.0514 | 0.0584 | apparent KD of MS2 coat protein [1]: 0.0463 µM
8 | GCUGGUCGAGGAUAUACAUGAGGAUCACCCAUGUGAUUAGCAGUCCUCGGACUGCAAUGUAGAAGGUGACCAGC [E3/2-B1] (Eterna round: R97, puzzle: Exclusion 3) | 0.907 | 0.198 | 
9 | CUCCUACAUGAGGAUCACCCAUGUCAGGAUAUCUCAGUGGCACCUAAAUUCGCCACCCAGAGAAGGGACGUGCA [Erralaorge] (puzzle: Exclusion 1) |  |  | apparent KD of MS2 coat protein [2]: 0.0134 µM
10 | CACCGUUAGUGAGGAUAUAGUACAUGAGGAUCACCCAUGUAAUAAAUGAGAAUUUCGGAUGUAUGCUAGAAGGCACAAAUCGGC [Ostricism 51 - Jieux - Exclusion NG 2] (Eterna round: R96, puzzle: Exclusion NG 2) |  |  | apparent KD of MS2 coat protein [1]: 0.0472 µM
11 | AGCCCUUGUGUCAGGAUAUGCAUCCUUAAUGGACGGCAGAAGGGACAUGAGGAUCACCCAUGUAAAUAGAAAAU [Sodixeti] (puzzle: Brourd's mod of Exclusion 4) |  |  | apparent KD of MS2 coat protein [3]: 0.0301 µM; apparent KD of MS2 coat protein [2]: 0.111 µM; apparent KD of MS2 coat protein [4]: 0.177 µM
12 | GCAUUACAUGAGGAUCACCCAUGUGAGGAUAUUAGGGUCGCAAGCACGUCUAGCAGACUGAGAAGGCACGGGUG [Eternabot (L1) Solution 45] (Eterna round: R97, puzzle: Exclusion 1) | 0.139 | 0.192 | 
13 | AUGUACCGGUGAGGAUAUUUUUAAUAGAGCUUUAUGAUAUACAUGAGGAUCACCCAUGUUACUUUAAAGAAGGCAUCGGAUUAA [Mat - Exclusion NG 2 - Mod of JL - D90] (Eterna round: R96, puzzle: Exclusion NG 2) |  |  | apparent KD of MS2 coat protein [1]: 0.0128 µM
14 | UAUAUGUAAGGAUAUCUCGUCAUGGAGGAAACUCCAUGACGAGAGAAGGUACAUGAGGAUCACCCAUGUCUAUU [Mod of Fisker 24 - Jieux - Exclusion 4] (Eterna round: R97, puzzle: Exclusion 4) | 0.117 | 0.0331 | 
15 | CCGGCUUAGGAGGAUAUAGGAGUCGAUAGACACCUAGAAGGCCUAACAUGAGGAUCACCCAUGUGACCUACCGG [Mod of Eli 28 - Jieux - Exclusion 6] (Eterna round: R97, puzzle: Exclusion 6) | 0.132 | 0.0286 | 
16 | UAUGGUUAAGUCAGGAUAUGCUCGUAGAGGUCUAUGCAGAAGGGACAUGAGGAUCACCCAUGUAUGGUCGUGUU [Ex4 #67] (Eterna round: R97, puzzle: Brourd's mod of Exclusion 4) | 0.161 | 0.067 | 
17 | UAUUAGCAAGCAAGAUCCCACAUGAGGAUCACCCAUGUGCUCGUCUUAAUUCCAGAAUUACUGGGCUCUCGUCUUAU [JR_STOV1_Sub090] (Eterna round: R97, puzzle: Sensor, turn-off variant 1) | 0.041 | 0.0406 | 
18 | GGAGGAGGAGUGAGGAUAUGGUGGUGGAAACACCACCAGAAGGCACAUGAGGAUCACCCAUGUGAUGUAGAGAA [AK-MS2ROC-r4-Bmoexclusion4-16] (Eterna round: R97, puzzle: Brourd's mod of Exclusion 4) | 0.0274 | 0.016 | 

Row | Sequence | apparent KD of MS2 coat protein (input ligand: FMN 200 uM) [µM] | apparent KD of MS2 coat protein (input ligand: none) [µM] | also measured
19 | CCUCAGUCACAGGAUAUGCUCAUCUAAUGAUGAGCAGAAGGGUGAACAUGAGGAUCACCCAUGUUUACCAGGGU [Omei Ex6 E5] (Eterna round: R97, puzzle: Exclusion 6) | 0.036 | 0.161 | 
20 | CGUGUGUAAGGAUAUUUUGCAAGGCGGUGGACCCGCCUAUUAGAGAAGGUACAUGAGGAUCACCCAUGUGAGCC [Eternabot (L2) Solution 74] (Eterna round: R97, puzzle: Exclusion 4) | 0.0582 | 0.0423 | 
21 | CCGUUGCUAGGAUAUACAUGAGGAUCACCCAUGUUUGAUCCAGCGAGUCAAUCCGCUUGUAGAAGGAGUUACAC [EX3 C.9] (Eterna round: R97, puzzle: Exclusion 3) | 0.0253 | 0.0264 | 
22 | GGUUGGCGAGGAUAUACAUGAGGAUCACCCAUGUGAGAGAAUAAAGUGAGAAAGAAAAGUAGAAGGCGCUGACA [Mat - Exclusion 3 - Mod of Salish D51] (puzzle: Exclusion 3) |  |  | apparent KD of MS2 coat protein [3]: 0.9 µM; apparent KD of MS2 coat protein [2]: 0.0469 µM; apparent KD of MS2 coat protein [4]: 0.0639 µM
23 | ACAUGUAAUGCAGGAUAUCGGACACAUGAGGAUCACCCAUGUGACCAGAGGUAUUGCUAAGAGUCUGAGAAGGGUAUGUACAUG [Ex NG2 #50] (Eterna round: R96, puzzle: Exclusion NG 2) | 0.02 | 0.0191 | apparent KD of MS2 coat protein [1]: 0.0175 µM
24 | AAAAAGUGAGGAUAUACAUAAGGACCCGGGAGGGAAAUAAAACAUGAGGAUCACCCAUGUAGAAGGCACAAAAA [Exclss2-I] (puzzle: Exclusion 2) |  |  | apparent KD of MS2 coat protein [3]: 0.0202 µM; apparent KD of MS2 coat protein [2]: 0.0222 µM; apparent KD of MS2 coat protein [4]: 0.0135 µM
25 | GUGGUGGGUUUUCCGAGUAACAUGAGGAUCACCCAUGUAGAAGUUGAAGGUAUCAAGCGAAUGGCUCGUCAAAUGUG [JR_SV3TOV1_Sub047] (puzzle: Sensor v3, turn-off variant 1) |  |  | apparent KD of MS2 coat protein [3]: 0.0423 µM; apparent KD of MS2 coat protein [2]: 0.0175 µM; apparent KD of MS2 coat protein [4]: 0.0464 µM
26 | ACAUGAGGAUCACCCAUGUGACAAUAAUGGCUGAUACAGAGACAGGAUAUAGGUGAAUAUCUAACCUAGAAGGGUCAUGACUGG [Deportation 71 - Jieux - Exclusion NG 3] (Eterna round: R96, puzzle: Exclusion NG 3) | 0.0348 | 0.054 | apparent KD of MS2 coat protein [1]: 0.033 µM
27 | UUGUUGUAUGUAGGAUAUGCAUAUUGUUAUUAUGCAGAAGGACAUGAGGAUCACCCAUGUAUAUUAUUAUUAUAUGUUAUAUAU [Title] (Eterna round: R96, puzzle: Exclusion NG 1) |  |  | apparent KD of MS2 coat protein [1]: 0.0179 µM
28 | UUGUUAUAUGUAGGAUAUGCGUAUUAUUAUUAUGCAGAAGGACAUGAGGAUCACCCAUGUAUGUUGUUGUUAUAUAUUAUAUAU [Title] (Eterna round: R96, puzzle: Exclusion NG 1) |  |  | apparent KD of MS2 coat protein [1]: 0.0181 µM
29 | GUGGUACAUGAGGAUCACCCAUGUGAGGAUAUGUCUGUCUGUUGGUUUCGGCGGGCGGGCAGAAGGCGCGUCGC [-27.3, -25.1 kcal, 16% A] (Eterna round: R97, puzzle: Exclusion 1) | 0.0341 | 0.0316 | 
30 | CCAGAGGAAGGAUAUUAAGGCGUAUACAUGAGGAUCACCCAUGUCCUACACUUCGCACUAUAAGAAGGUUCCCGGA [Eternabot (Original) Solution 39] (Eterna round: R97, puzzle: Exclusion 5) | 0.193 | 0.121 | 
31 | GCAUACUAAGGAUAUACAUGAGGAUCACCCAUGUUGCCAAAUGGCAGCAUCACCUGGAGUAGAAGGUAGAUGUA [Atanbi] (puzzle: Exclusion 3) |  |  | apparent KD of MS2 coat protein [2]: 0.0297 µM
32 | AAAUAGCAUGAGGAUAUUGGACUGUAUUCAGUACGAGAAGGCAUGACAUGAGGAUCACCCAUGUUUUGUUGGGA [EX6 #6] (Eterna round: R97, puzzle: Exclusion 6) | 0.222 | 0.0675 | 
33 | CAGUACUGAGGAUAUACAUGAGGAUCACCCAUGUGUCCUAGCUAGGAAACUAGCAUUAGUAGAAGGCAGUACUG [Fiskers Ex 3 828 mod 6] (puzzle: Exclusion 3) |  |  | apparent KD of MS2 coat protein [2]: 0.0221 µM
34 | GUUCGUGAGAAGGAUAUGAUUCUGGAACAAGAGUUAGAAGGUUUCACAUGAGGAUCACCCAUGUCUAGAAAACC [Eternabot (Original) Solution 32] (Eterna round: R97, puzzle: Exclusion 6) | 0.0122 | 0.0107 | 
35 | AAUAACAGAGGAUAUACUAUUUUAUGUGUUUGUUAUUUUGAACAUGAGGAUCACCCAUGUAGAAGGCUGAAUGA [JMF 65] (puzzle: Exclusion 2) |  |  | apparent KD of MS2 coat protein [2]: 0.0247 µM
